Data reported in patent publication US20220193114A1.

Molecular target: MuSK (wild type, full length, mouse) (mouse) (UniProt Q61006)
Assay: cell-based or functional assay

UniProt Q61006, sequence (Q61006 22-868): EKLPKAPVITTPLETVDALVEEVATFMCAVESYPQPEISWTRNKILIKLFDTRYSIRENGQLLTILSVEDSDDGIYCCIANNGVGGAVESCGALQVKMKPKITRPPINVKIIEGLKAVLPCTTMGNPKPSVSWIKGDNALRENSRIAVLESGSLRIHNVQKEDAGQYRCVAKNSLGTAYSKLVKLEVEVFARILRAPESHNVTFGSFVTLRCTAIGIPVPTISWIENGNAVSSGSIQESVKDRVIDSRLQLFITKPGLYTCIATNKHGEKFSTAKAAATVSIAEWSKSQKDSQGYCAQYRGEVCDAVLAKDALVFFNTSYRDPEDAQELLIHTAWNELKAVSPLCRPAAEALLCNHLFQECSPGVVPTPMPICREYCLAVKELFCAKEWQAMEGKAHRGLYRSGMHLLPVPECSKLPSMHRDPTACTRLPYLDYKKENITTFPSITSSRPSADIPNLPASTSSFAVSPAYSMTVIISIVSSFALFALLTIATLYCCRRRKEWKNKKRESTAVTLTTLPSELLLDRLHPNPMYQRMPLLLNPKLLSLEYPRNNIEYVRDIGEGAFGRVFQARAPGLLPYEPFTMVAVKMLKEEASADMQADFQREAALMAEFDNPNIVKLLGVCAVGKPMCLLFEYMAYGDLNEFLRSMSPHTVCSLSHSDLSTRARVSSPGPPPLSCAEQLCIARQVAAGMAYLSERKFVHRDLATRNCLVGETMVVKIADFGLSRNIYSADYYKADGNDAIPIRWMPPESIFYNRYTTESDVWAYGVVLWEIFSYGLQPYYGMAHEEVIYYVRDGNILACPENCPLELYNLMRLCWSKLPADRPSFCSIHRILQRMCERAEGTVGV

## BMP4 (ligand)
  transcription of Wnt11 in response to BMP4 (qRT-PCR, primary myotubes), WT response relative to ΔIg3-MuSK response (fold (WT response / ΔIg3-MuSK response)): 2.2
  transcriptional response of Dok7 to BMP4 (qRT-PCR, primary myotubes), WT response relative to ΔIg3-MuSK response (fold (WT response / ΔIg3-MuSK response)): 1.6
